± gives the standard deviation of the averaged measurements.
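Note: PSI is a weighted mean of sequencing reads over stability bins, variants kept only with over 10 reads, mCherry proximal and sfGFP distal, peptide attached via GGGS linker.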

This series deals with Saccharomyces cerevisiae. In words: protein stability index of tFT-peptide fusion (C-terminal peptide) (PSI (0-1 scale)); higher = more stable (slower turnover). The note with it: genetic background: wild type; temperature: 30 C.
In the case of KKKKEISNEAKQ, the protein stability index is 0.672 ± 0.093.
The sequence KKKKFQDQKIDE returned a protein stability index of 0.629 ± 0.0068.
To KKKKKEKNKIKI belongs 0.689 ± 0.14; to KKKKKGASEDNI, 0.786 ± 0.1; to KKKKKKKEKKAK, 0.644 ± 0.042.
The same measure for KKKKKKKEYKKK: 0.752 ± 0.038; for KKKKKKKKKNNK: 0.6851 ± 0.0035; for KKKKKKKYKQRK: 0.706 ± 0.05.
To KKKKKKTNKKKE belongs 0.758 ± 0.065.
Take KKKKKKVKNTKE: the protein stability index amounted to 0.698 ± 0.047.
KKKKNKKKNKKK showed a protein stability index of 0.669 ± 0.011.
To KKKKNKKKTKKT belongs 0.784 ± 0.17; to KKKNKKKEKKKN, 0.714 ± 0.049.
As for KKKNNEKLEEKK, the protein stability index was determined as 0.687 ± 0.0098.
In turn, KKKNNKRKAKNK registered a protein stability index of 0.6918 ± 0.0012.
KKKNQLSKVTKR came in with a protein stability index of 0.702 ± 0.031.
For KKKRNSYMKGNR, the protein stability index came to 0.681 ± 0.1.
Sequence KKLAPHPLTTRV came in with a protein stability index of 0.642 ± 0.078.
KKLKQTRRKKEN displayed a protein stability index of 0.7296 ± 0.0068.
Sequence KKMSGNKLKNKN displayed a protein stability index of 0.643 ± 0.013.
As to KKNAFIYKRRPR, the protein stability index was found to be 0.714 ± 0.04.
Turning to KKNHTQIKEVPR, the protein stability index stood at 0.6943 ± 0.00099.
For the sequence KKNHYKAICNRR, the protein stability index came to 0.619 ± 0.0075.
To KKNICIKVENSY belongs 0.676 ± 0.031; to KKNKEKGEREKK, 0.615 ± 0.058.
In turn, KKNKGKGREVRI came in with a protein stability index of 0.67 ± 0.049.
KKNKKKKEKKAK had a protein stability index of 0.625 ± 0.025.
The sequence KKNKQEKPKKPK displayed a protein stability index of 0.698 ± 0.0062.
To KKNSTKKKKESW belongs 0.633 ± 0.029; to KKPHKTKGICYT, 0.673 ± 0.012.
KKQHTIKKKKKR had a protein stability index of 0.734 ± 0.028.
KKQKKKQNKQKT displayed a protein stability index of 0.731 ± 0.026.
Take KKQKPKVTSTKT: the protein stability index is 0.712 ± 0.037.
Sequence KKQRKRKMTERG showed a protein stability index of 0.742 ± 0.11.
KKRKKDKRSQER gave a protein stability index of 0.671 ± 0.068.
On to KKRMDKIKDKKI, for which the protein stability index came out at 0.713 ± 0.098.
The sequence KKRQNIAKSEDT showed a protein stability index of 0.701 ± 0.025.
KKRREKRTEKKQ showed a protein stability index of 0.661 ± 0.027.
To KKSERRGQKDYE belongs 0.696 ± 0.028.
To KKSGISSGPNDT belongs 0.689 ± 0.043; to KKSLNTKIQTRE, 0.707 ± 0.029.
Consider KKTDNGSYERGE, for which the protein stability index amounted to 0.701 ± 0.018.
Turning to KKTKKGINVEER, the protein stability index is 0.662 ± 0.0097.
KKTKKKRTEPQP registered a protein stability index of 0.724 ± 0.068.
As for KKTQKKKKLIPQ, the protein stability index was found to be 0.7046 ± 0.0062.
With KKVGHGLRERGQ, the protein stability index is 0.628 ± 0.061.
The sequence KKVKKKRSKKNT showed a protein stability index of 0.66 ± 0.17.
To KKYNNMRKHYVK belongs 0.701 ± 0.02; to KLFWYLDCKLLY, 0.579 ± 0.0073.
KLIVPCSPIRLS: the protein stability index came out at 0.6929 ± 0.0043.
Regarding KLKIDKKKNTFE, the protein stability index is 0.728 ± 0.047.
Take KLLLYNILSYWS: the protein stability index stood at 0.56105 ± 0.00055.
With KMILVGMKKSVV, the protein stability index is 0.6502 ± 0.0026.
With KMNKTEYINGMT, the protein stability index came out at 0.652 ± 0.038.
KNEEKIDKIEEQ came in with a protein stability index of 0.72 ± 0.09.
Regarding KNFGHQGDVCRR, the protein stability index is 0.734 ± 0.037.
The sequence KNKKFKKDEKTR registered a protein stability index of 0.773 ± 0.059.
In turn, KNKNKKTPARYR registered a protein stability index of 0.692 ± 0.015.
Sequence KNNKIKHIKVKN returned a protein stability index of 0.679 ± 0.017.
Regarding KNPKKMKKVTTK, the protein stability index is 0.694 ± 0.0091.
KNQRTLKSPQEV displayed a protein stability index of 0.6387 ± 0.0055.
For KNQTDRRKKIIN, the protein stability index came out at 0.648 ± 0.039.
As for KNVVSVRWERNE, the protein stability index was 0.635 ± 0.084.
For KPKKKNPREKPV, the protein stability index was found to be 0.669 ± 0.064.
KPPPSISLSWLE displayed a protein stability index of 0.716 ± 0.0024.
To KPQFNLQYTVKI belongs 0.616 ± 0.025.
The sequence KQHWIDDRNRIE had a protein stability index of 0.716 ± 0.065.
KQKKKSQTKTRK gave a protein stability index of 0.718 ± 0.034.
The same measure for KQKNKNNVKQPN: 0.693 ± 0.012; for KQKRQLPRKNET: 0.639 ± 0.0092; for KQLKKKKQIRRK: 0.728 ± 0.13.
KQNQKKREITAG showed a protein stability index of 0.664 ± 0.055.
With KREEKKTKRKKK, the protein stability index amounted to 0.712 ± 0.048.
As for KRGKRKEGGKAR, the protein stability index is 0.687 ± 0.065.
The sequence KRIRTKLKKTQK displayed a protein stability index of 0.695 ± 0.011.
The sequence KRKKEKNQPTKR had a protein stability index of 0.6972 ± 0.0044.
In turn, KRKKNKEENQTE registered a protein stability index of 0.708 ± 0.016.
As for KRLEFLTHAVFK, the protein stability index is 0.7281 ± 0.0025.
KRSVSIESMTQA displayed a protein stability index of 0.699 ± 0.011.
KSASIGTTLRNL yielded a protein stability index of 0.699 ± 0.022.

Values taken from the supplement of paper PMC10724198.
